Target: full-length PbgA protein with a carboxyl-terminal 6XHis tag (S. Typhimurium)
Test: SEC-MALS

Substance “full-length PbgA protein with a carboxyl-terminal 6XHis tag (natural protein)” has a stoichiometry N of 4.

From publication PMC4978220
